According to publication PMC4431734, “Characterization of a Single-Stranded DNA-Binding-Like Protein from Nanoarchaeum equitans—A Nucleic Acid Binding Protein with Broad Substrate Specificity”:

Tests used:
EcoSSB = EcoSSB (Escherichia coli, UniProt P0AGE0 1-178); assay: SPR; kon 3.45e4 1/Ms; koff 1.85e-4 1/s; EMSA: 20 mM Tris-HCl pH 7.5, 100 mM NaCl, 1 mM EDTA, 25 C, 10 min; fluorescence: 20 mM Tris-HCl pH 7.5, 1 mM EDTA, 2/100/500 mM NaCl, 25 C; SPR: 10 mM Hepes pH; details: protein: recombinant; chain copies: 4; label: 3' biotin
NeqSSB-like protein [1] = target: T1, NeqSSB-like protein (Nanoarchaeum equitans Kin4-M, UniProt Q74MP9 2-243); assay: SPR; kon 7.91e3 1/Ms; koff 2.39e-2 1/s; EMSA: 20 mM Tris-HCl pH 7.5, 100 mM NaCl, 1 mM EDTA, 25 C, 10 min; fluorescence: 20 mM Tris-HCl pH 7.5, 1 mM EDTA, 2/100/500 mM NaCl, 25 C; SPR: 10 mM Hepes pH; details: protein: recombinant; tags: N-terminal His tag with TEV site, removed by TEV; label: 3' biotin
T1 sequence: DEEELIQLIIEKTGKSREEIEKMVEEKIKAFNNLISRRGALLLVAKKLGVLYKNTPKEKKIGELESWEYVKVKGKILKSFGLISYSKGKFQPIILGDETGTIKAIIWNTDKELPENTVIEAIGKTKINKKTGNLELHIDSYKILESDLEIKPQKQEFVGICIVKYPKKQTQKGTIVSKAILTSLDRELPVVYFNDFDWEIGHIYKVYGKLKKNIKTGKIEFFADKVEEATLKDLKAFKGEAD

NeqSSB-like protein [2] = target: T1, NeqSSB-like protein; assay: SPR; kon 8.30e3 1/Ms; koff 4.89e-2 1/s; EMSA: 20 mM Tris-HCl pH 7.5, 100 mM NaCl, 1 mM EDTA, 25 C, 10 min; fluorescence: 20 mM Tris-HCl pH 7.5, 1 mM EDTA, 2/100/500 mM NaCl, 25 C; SPR: 10 mM Hepes pH; details: protein: recombinant; tags: N-terminal His tag with TEV site, removed by TEV; label: 3' biotin on strand 1; blunt
NeqSSB-like protein [3] = target: T1, NeqSSB-like protein; assay: competition EMSA; mixed with 100 bp dsDNA; ssDNA bound preferentially at low protein; EMSA: 20 mM Tris-HCl pH 7.5, 100 mM NaCl, 1 mM EDTA, 25 C, 10 min; fluorescence: 20 mM Tris-HCl pH 7.5, 1 mM EDTA, 2/100/500 mM NaCl, 25 C; SPR: 10 mM Hepes pH; details: protein: recombinant; tags: N-terminal His tag with TEV site, removed by TEV; label: 5' fluorescein
NeqSSB-like protein [4] = target: T1, NeqSSB-like protein; assay: EMSA; 10 pmol DNA; smeary shift; EMSA: 20 mM Tris-HCl pH 7.5, 100 mM NaCl, 1 mM EDTA, 25 C, 10 min; fluorescence: 20 mM Tris-HCl pH 7.5, 1 mM EDTA, 2/100/500 mM NaCl, 25 C; SPR: 10 mM Hepes pH; details: protein: recombinant; tags: N-terminal His tag with TEV site, removed by TEV; label: 5' fluorescein
NeqSSB-like protein [5] = target: T1, NeqSSB-like protein; assay: EMSA; 10 pmol DNA; EMSA: 20 mM Tris-HCl pH 7.5, 100 mM NaCl, 1 mM EDTA, 25 C, 10 min; fluorescence: 20 mM Tris-HCl pH 7.5, 1 mM EDTA, 2/100/500 mM NaCl, 25 C; SPR: 10 mM Hepes pH; details: protein: recombinant; tags: N-terminal His tag with TEV site, removed by TEV; label: 5' fluorescein

EcoSSB, sequence (P0AGE0 whole entry): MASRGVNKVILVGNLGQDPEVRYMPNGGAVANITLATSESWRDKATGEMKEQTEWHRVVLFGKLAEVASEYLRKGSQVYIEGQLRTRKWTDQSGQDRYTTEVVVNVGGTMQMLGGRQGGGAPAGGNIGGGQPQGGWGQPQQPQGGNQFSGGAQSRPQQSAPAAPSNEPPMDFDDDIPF

B1: ssDNA 60-mer (ssDNA)
DNA: AATTCTGGGTGTGTGGGTGTGTGGGTGTGTGGGTGTGGTCAAGTTGACTACGTATACATC
**Q.** What does the source list for B1?
**A.** Kd (EcoSSB): 5.36 nM; Kd (NeqSSB-like protein [1]): 2660 nM

B2: dsDNA 60-mer (dsDNA)
DNA 1: AATTCTGGGTGTGTGGGTGTGTGGGTGTGTGGGTGTGGTCAAGTTGACTACGTATACATC
DNA 2: GATGTATACGTAGTCAACTTGACCACACCCACACACCCACACACCCACACACCCAGAATT
**Q.** Which Kd (NeqSSB-like protein [2]) does the source give for B2 here?
**A.** 5260 nM

B3: (dT)76 (ssDNA)
DNA: TTTTTTTTTTTTTTTTTTTTTTTTTTTTTTTTTTTTTTTTTTTTTTTTTTTTTTTTTTTTTTTTTTTTTTTTTTTT
**Q.** Does B3 bind (NeqSSB-like protein [3])?
**A.** binds

**Q.** Does TTTTTTTTTTTTTTTTTTTTTTTTTTTTTTTTTTT (ssDNA) [(dT)35] bind (NeqSSB-like protein [4])?
**A.** binds

B4: (dT)120 (ssDNA)
DNA: TTTTTTTTTTTTTTTTTTTTTTTTTTTTTTTTTTTTTTTTTTTTTTTTTTTTTTTTTTTTTTTTTTTTTTTTTTTTTTTTTTTTTTTTTTTTTTTTTTTTTTTTTTTTTTTTTTTTTTTT
**Q.** Does B4 bind (NeqSSB-like protein [5])?
**A.** binds
